Test results: US20030070184A1, “LIGANDS FOR DISCOIDIN DOMAIN RECEPTOR TYROSINE KINASES AND COMPLEXES THEREOF” (priority 1999, published 2003)

Test system: DDR receptors
Experiment: Effect of other agents on DDR activity / collagen-induced DDR tyrosine phosphorylation
Type: cell-based
Conditions: collagen-associated molecules

B1: decorin: collagen-associated molecule (protein, UniProt P07585 31-359, looked up)
Decorin: DEASGIGPEVPDDRDFEPSLGPVCPFRCQCHLRVVQCSDLGLDKVPKDLPPDTTLLDLQNNKITEIKDGDFKNLKNLHALILVNNKISKVSPGAFTPLVKLERLYLSKNQLKELPEKMPKTLQELRAHENEITKVRKVTFNGLNQMIVIELGTNPLKSSGIENGAFQGMKKLSYIRIADTNITSIPQGLPPSLTELHLDGNKISRVDAASLKGLNNLAKLGLSFNSISAVDNGSLANTPHLRELHLDNNKLTRVPGGLAEHKYIQVVYLHNNNISVVGSSDFCPPGHNTKKASYSGVSLFSNPVQYWEIQPSTFRCVYVRSAIQLGNYK
  effect on DDR activity: no effect
